Test results taken from the supplement of paper PMC9732359.
± gives the uncertainty stated by the source.

Test: protein stability index of a GFP-peptide fusion (yeast GPS) (PSI 1-4); higher = more stable; sorted into four equal gates, so the index is relative within each strain
Procedure, shortened: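 Sequencing reads from sorted gates were used to score each peptide. The library consisted of tiled 17-residue yeast protein peptides fused downstream of GFP on a Cherry-expressing plasmid, pooled and carried in yeast. Mid-log cultures in leucine-free medium were split into four equal gates by GFP/Cherry ratio, and each gate's plasmids were PCR-amplified and Illumina-sequenced. The protein stability index adds up, over all gates, the read frequency multiplied by the gate number.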

IDAMKAVAEAYNNRSLL [RPN6]
protein stability index (doa10∆): 1.7 ± 0.061 | protein stability index (pdr5∆): 2.07 ± 0.068 | protein stability index (san1∆): 2.28 ± 0.095 | protein stability index (ubr1∆): 1.79 ± 0.067

PNSSANNNPLQQQSSQN [GAL11]
protein stability index (doa10∆): 2.99 ± 0.051 | protein stability index (pdr5∆): 3.03 ± 0.045 | protein stability index (san1∆): 3.02 ± 0.033 | protein stability index (ubr1∆): 2.98 ± 0.034

MSEEGPQVKIREASKDN [RPB3]
protein stability index (doa10∆): 3.18 ± 0.13 | protein stability index (pdr5∆): 2.44 ± 0.039 | protein stability index (san1∆): 2.94 ± 0.096 | protein stability index (ubr1∆): 3.08 ± 0.083

SGEDVIIGKTTPISPDE [RPB2]
protein stability index (doa10∆): 3.26 ± 0.21 | protein stability index (san1∆): 3.49 ± 0.083 | protein stability index (ubr1∆): 3.35 ± 0.085

LQRASSKMGAPWCVKPE [ITC1]
protein stability index (doa10∆): 3.14 ± 0.089 | protein stability index (pdr5∆): 3.29 ± 0.078 | protein stability index (san1∆): 3.33 ± 0.055 | protein stability index (ubr1∆): 3.27 ± 0.066

KNIAQCLSDYTKKISNF [YJL039C/NUP192]
protein stability index (doa10∆): 1.79 ± 0.055 | protein stability index (pdr5∆): 2.22 ± 0.055 | protein stability index (san1∆): 2.02 ± 0.068 | protein stability index (ubr1∆): 1.49 ± 0.036

EETSHLLTVTPGPRLLY [RPN10]
protein stability index (doa10∆): 2.61 ± 0.06 | protein stability index (pdr5∆): 2.69 ± 0.074 | protein stability index (san1∆): 2.54 ± 0.091 | protein stability index (ubr1∆): 3.06 ± 0.057

ITKLNKEIRAFDKLLNI [SRB4]
protein stability index (doa10∆): 3.41 ± 0.098 | protein stability index (pdr5∆): 3.44 ± 0.088 | protein stability index (san1∆): 3.36 ± 0.077 | protein stability index (ubr1∆): 3.15 ± 0.12

EVDVCDKCGLMGYSGWC [RET1]
protein stability index (doa10∆): 2.15 ± 0.098 | protein stability index (pdr5∆): 2.73 ± 0.086 | protein stability index (san1∆): 2.32 ± 0.19 | protein stability index (ubr1∆): 2.39 ± 0.088

PNPNNMKTVQSPMGAQP [GAL11]
protein stability index (doa10∆): 3.21 ± 0.13 | protein stability index (pdr5∆): 2.96 ± 0.095 | protein stability index (san1∆): 2.96 ± 0.12 | protein stability index (ubr1∆): 2.94 ± 0.075

SYEKNEDHVEDHRKRKK [LIN1]
protein stability index (doa10∆): 3.25 ± 0.1 | protein stability index (pdr5∆): 3.36 ± 0.1 | protein stability index (san1∆): 3.38 ± 0.084 | protein stability index (ubr1∆): 3.21 ± 0.054

SLEENAMSTVTLGVVGK [SKI6]
protein stability index (doa10∆): 3.22 ± 0.16 | protein stability index (pdr5∆): 3.21 ± 0.14 | protein stability index (san1∆): 3.04 ± 0.099 | protein stability index (ubr1∆): 2.72 ± 0.11

RMYEEASGKEVEKVATA [RPN2]
protein stability index (doa10∆): 2.67 ± 0.25

AVVFKPFKGEVVDGTVV [RPB7]
protein stability index (doa10∆): 3.05 ± 0.1 | protein stability index (pdr5∆): 3.03 ± 0.048 | protein stability index (san1∆): 2.79 ± 0.062 | protein stability index (ubr1∆): 2.79 ± 0.068

AAEFRYKYGYDMPCDVL [SCL1]
protein stability index (doa10∆): 2.64 ± 0.078 | protein stability index (pdr5∆): 2.79 ± 0.057 | protein stability index (san1∆): 2.69 ± 0.054 | protein stability index (ubr1∆): 2.33 ± 0.059

NFLETIASTEKPENKTD [SIR4]
protein stability index (doa10∆): 2.94 ± 0.1 | protein stability index (pdr5∆): 2.93 ± 0.089 | protein stability index (san1∆): 2.77 ± 0.11 | protein stability index (ubr1∆): 3.13 ± 0.092

GLHPFEVAQLGSLACDT [RPB4]
protein stability index (doa10∆): 1.9 ± 0.15 | protein stability index (pdr5∆): 2.25 ± 0.18 | protein stability index (ubr1∆): 2.33 ± 0.08

EKLVSDLRLIKVPQQAA [SMC1]
protein stability index (doa10∆): 3.19 ± 0.18 | protein stability index (pdr5∆): 3.44 ± 0.16 | protein stability index (san1∆): 2.16 ± 0.24 | protein stability index (ubr1∆): 3.3 ± 0.14

PRSDAQAIKEASYVNIP [RPS0A]
protein stability index (doa10∆): 2.88 ± 0.058 | protein stability index (pdr5∆): 2.76 ± 0.048 | protein stability index (san1∆): 2.71 ± 0.058 | protein stability index (ubr1∆): 2.47 ± 0.034

ILNLYSSAHLIRINDEP [YML103C/NUP188]
protein stability index (doa10∆): 1.99 ± 0.096 | protein stability index (pdr5∆): 2.18 ± 0.18 | protein stability index (san1∆): 1.8 ± 0.26 | protein stability index (ubr1∆): 1.77 ± 0.092

WKLLNQLVLRGLLSQAI [YJR042W/NUP85]
protein stability index (doa10∆): 2.01 ± 0.18 | protein stability index (pdr5∆): 1.3 ± 0.076 | protein stability index (san1∆): 1.28 ± 0.11 | protein stability index (ubr1∆): 1.17 ± 0.1

VDIEYTRGRNIIMHKDV [RET1]
protein stability index (doa10∆): 2.44 ± 0.11 | protein stability index (pdr5∆): 2.55 ± 0.13 | protein stability index (san1∆): 2.92 ± 0.064 | protein stability index (ubr1∆): 2.84 ± 0.1

KKSKNGTISKTGKKNKV [SRP14]
protein stability index (doa10∆): 2.93 ± 0.11 | protein stability index (pdr5∆): 3.26 ± 0.089 | protein stability index (san1∆): 3.14 ± 0.059 | protein stability index (ubr1∆): 3.51 ± 0.057

LNEKFQELRKKVNPNIM [SMC2]
protein stability index (pdr5∆): 2.61 ± 0.27 | protein stability index (san1∆): 2.98 ± 0.2 | protein stability index (ubr1∆): 2.81 ± 0.15

AGLGKTNELWARLAILK [YGR119C/NUP57]
protein stability index (doa10∆): 2.38 ± 0.086 | protein stability index (pdr5∆): 1.67 ± 0.091 | protein stability index (san1∆): 2.02 ± 0.2 | protein stability index (ubr1∆): 3.56 ± 0.14

PAFSFGISNGSESKDSD [YLR335W/NUP2]
protein stability index (doa10∆): 3.23 ± 0.093 | protein stability index (pdr5∆): 3.05 ± 0.11 | protein stability index (san1∆): 3.12 ± 0.063 | protein stability index (ubr1∆): 3.08 ± 0.088
